Reference: patent US20260042854A1, “ANTI-GLP-1R ANTIBODIES AND USES THEREOF” (SCIWIND BIOSCIENCES USA CO., LTD, priority 2022, published 2026)

Experiments:
[1] = molecular target: hGLP-1R on the cell membrane (HEK293 cells overexpressing hGLP-1R) (human) (UniProt P43220); experiment: cell-based or functional assay
[2] = molecular target: monkey GLP-1R (JN033215.1) on HEK293 cells (monkey); experiment: cell-based or functional assay

Chain of hGLP-1R on the cell membrane (HEK293 cells overexpressing hGLP-1R) (human) (P43220 24-463): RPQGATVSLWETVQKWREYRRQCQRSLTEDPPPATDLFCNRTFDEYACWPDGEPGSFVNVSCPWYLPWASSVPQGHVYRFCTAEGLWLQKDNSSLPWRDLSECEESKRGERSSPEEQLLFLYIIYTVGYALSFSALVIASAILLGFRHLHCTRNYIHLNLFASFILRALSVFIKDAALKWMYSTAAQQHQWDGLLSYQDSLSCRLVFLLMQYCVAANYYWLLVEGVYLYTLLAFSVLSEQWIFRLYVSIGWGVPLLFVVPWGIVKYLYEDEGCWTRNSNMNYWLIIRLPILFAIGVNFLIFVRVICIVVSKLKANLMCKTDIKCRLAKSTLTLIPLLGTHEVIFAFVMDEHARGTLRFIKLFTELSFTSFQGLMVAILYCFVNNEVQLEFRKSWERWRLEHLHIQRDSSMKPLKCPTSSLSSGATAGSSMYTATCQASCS

B1: P16891 (antibody, human IgG4 S228P, kappa)
heavy: QVQLVQSGAEMKKPGASVKVSCKTSGYRFSTYVISWVRQTPGQGLEWMGWISPYTGDIDYAQKFQGRVTITADESTSTAYMELSRLRSDDTAVYYCAREREGYNFPGMDVWGQGTTVTVSSASTKGPSVFPLAPCSRSTSESTAALGCLVKDYFPEPVTVSWNSGALTSGVHTFPAVLQSSGLYSLSSVVTVPSSSLGTKTYTCNVDHKPSNTKVDKRVESKYGPPCPPCPAPEFLGGPSVFLFPPKPKDTLYITREPEVTCVVVDVSQEDPEVQFNWYVDGVEVHNAKTKPREEQFNSTYRVVSVLTVLHQDWLNGKEYKCKVSNKGLPSSIEKTISKAKGQPREPQVYTLPPSQEEMTKNQVSLTCLVKGFYPSDIAVEWESNGQPENNYKTTPPVLDSDGSFFLYSRLTVDKSRWQEGNVFSCSVMHEALHNHYTQKSLSLSLGK
light: DIQLTQSPSFLSASVGDRVTITCRASQGISSYLAWYQQKPGRAPKLLIYSASTLQRGVPSRFSGSGSGTDFTLTISSLQPEDYATYYCQQAESFPPSFGPGTKVDIKRTVAAPSVFIFPPSDEQLKSGTASVVCLLNNFYPREAKVQWKVDNALQSGNSQESVTEQDSKDSTYSLSSTLTLSKADYEKHKVYACEVTHQGLSSPVTKSFNRGEC
Work on B1 yielded an IC50, inhibition of GLP-1 (2.5 ng/ml) activity in hGLP-1R-CRE-Luciferase-HEK293 reporter gene assay [1] of 17.2 nM and an IC50, inhibition of GLP-1 (2.5 ng/mL) activity in monkey GLP-1R-CRE-Luciferase-HEK293 reporter gene assay [2] of 13.8 nM.
